Among the data in patent publication US7148202 are transduction efficiency (GFP positive autofluorescent COS cells) against control phage MEGFP3 and phagemid particle-dependent transfection of COS-1 cells (fold molar excess) values, retold here.

The experiment has as its target FGF receptor on COS cells. Description: cell-based or functional assay.

Take “FGF2 display phage MF2/1G3 (FGF2-pIII fusion on M13 type 3 phage) (from UniProt P09038 2-155; P69168 19-424)”: the transduction efficiency (GFP positive autofluorescent COS cells) against control phage MEGFP3 came out at 10 fold.
“free FGF2 (non-biotinylated) (from UniProt P09038 2-155) (ligand)” showed a phagemid particle-dependent transfection of COS-1 cells (fold molar excess) of 100.
